This is an account of results in article PMC11969024 (2025).

To fix the notation:
B1: peptide HD2 (from tick evasin EVA4) / CCL11 (biotinylated, synthetic) (parent complex)
chain 1: EEDDYTAYAPLTCYFT
chain 2: not shown

The variants in the assay derive from B1.
Consider chain 1 D3V, for which the enrichment is -3.65 log2 (difference from the parental peptide).
Take chain 1 D3Y: the enrichment was -0.781 log2 (difference from the parental peptide).
On to chain 1 D3A, for which the enrichment was -2.56 log2 (difference from the parental peptide).
The same measure for chain 1 D3R: -4.57 log2 (difference from the parental peptide); for chain 1 D3Q: -4.56 log2 (difference from the parental peptide); for chain 1 D3G: -2.94 log2 (difference from the parental peptide).
For chain 1 D3H, the enrichment is -2.18 log2 (difference from the parental peptide).
Then chain 1 D3E, with 1.42 log2 (difference from the parental peptide); and chain 1 Y14I, with -2.68 log2 (difference from the parental peptide); and chain 1 Y14L, with -3.46 log2 (difference from the parental peptide).
In the case of chain 1 Y14M, the enrichment was -2.62 log2 (difference from the parental peptide).
Turning to chain 1 Y14Q, the enrichment was -4.82 log2 (difference from the parental peptide).
For the variant chain 1 L11C, the enrichment is 1.22 log2 (difference from the parental peptide).
In the case of chain 1 L11G, the enrichment is -5.15 log2 (difference from the parental peptide).
Then chain 1 L11K, with -0.948 log2 (difference from the parental peptide).
For chain 1 L11W, the enrichment is -0.874 log2 (difference from the parental peptide).
With chain 1 L11D, the enrichment is -6.85 log2 (difference from the parental peptide).
Regarding chain 1 L11M, the enrichment was 2.06 log2 (difference from the parental peptide).
On to chain 1 L11P, for which the enrichment was -8.67 log2 (difference from the parental peptide).
Regarding chain 1 L11A, the enrichment was -0.668 log2 (difference from the parental peptide).
On to chain 1 L11H, for which the enrichment is 0.483 log2 (difference from the parental peptide).
On to chain 1 T6W, for which the enrichment is -0.511 log2 (difference from the parental peptide).
chain 1 T6V: the enrichment is -3.9 log2 (difference from the parental peptide).
For chain 1 T6S, the enrichment was 2.88 log2 (difference from the parental peptide).
For chain 1 T6R, the enrichment was -0.866 log2 (difference from the parental peptide).
With chain 1 T6G, the enrichment was 2.76 log2 (difference from the parental peptide).
Take chain 1 T6F: the enrichment was -4.68 log2 (difference from the parental peptide).
Then chain 1 T6Y, with -1.69 log2 (difference from the parental peptide); and chain 1 T6H, with -0.677 log2 (difference from the parental peptide).
For the variant chain 1 A9Q, the enrichment was -0.313 log2 (difference from the parental peptide).
The same measure for chain 1 A9P: -8.38 log2 (difference from the parental peptide).
As for chain 1 P10E, the enrichment was -7.48 log2 (difference from the parental peptide).
chain 1 A7I: the enrichment was -0.213 log2 (difference from the parental peptide).
Take chain 1 A7Q: the enrichment was 2.3 log2 (difference from the parental peptide).
The same measure for chain 1 A7H: -0.338 log2 (difference from the parental peptide).
With chain 1 C13I, the enrichment was -6.17 log2 (difference from the parental peptide).
With chain 1 C13N, the enrichment is -8.78 log2 (difference from the parental peptide).
Then chain 1 C13T, with -6.48 log2 (difference from the parental peptide); and chain 1 C13P, with -6.72 log2 (difference from the parental peptide); and chain 1 C13L, with -6.8 log2 (difference from the parental peptide).
Consider chain 1 C13E, for which the enrichment was -8.19 log2 (difference from the parental peptide).
Take chain 1 C13V: the enrichment was -5.2 log2 (difference from the parental peptide).
chain 1 C13G: the enrichment was -8.69 log2 (difference from the parental peptide).
For the variant chain 1 D4V, the enrichment was -4.79 log2 (difference from the parental peptide).
Regarding chain 1 D4M, the enrichment was -3.45 log2 (difference from the parental peptide).
As for chain 1 D4H, the enrichment was -5.76 log2 (difference from the parental peptide).
With chain 1 T12M, the enrichment was -1.76 log2 (difference from the parental peptide).
For the variant chain 1 T12G, the enrichment is -9.29 log2 (difference from the parental peptide).
For the variant chain 1 T12I, the enrichment is -1.03 log2 (difference from the parental peptide).
Regarding chain 1 T12L, the enrichment is -0.794 log2 (difference from the parental peptide).
Regarding chain 1 T12V, the enrichment is -0.494 log2 (difference from the parental peptide).
For chain 1 E2P, the enrichment is -2.92 log2 (difference from the parental peptide).
Regarding chain 1 E2K, the enrichment is -3.4 log2 (difference from the parental peptide).
As for chain 1 E2Q, the enrichment is -1.08 log2 (difference from the parental peptide).
With chain 1 Y8C, the enrichment is -9.26 log2 (difference from the parental peptide).
Then chain 1 Y8S, with -6.51 log2 (difference from the parental peptide).
In the case of chain 1 F15I, the enrichment is 0.05 log2 (difference from the parental peptide).
Turning to chain 1 F15Y, the enrichment was 0.26 log2 (difference from the parental peptide).
On to chain 1 F15E, for which the enrichment is 0.713 log2 (difference from the parental peptide).
For chain 1 F15T, the enrichment is 1.13 log2 (difference from the parental peptide).
Take chain 1 F15P: the enrichment is -0.525 log2 (difference from the parental peptide).
chain 1 Y5P: the enrichment was -7.31 log2 (difference from the parental peptide).
With chain 1 Y5V, the enrichment was -5.26 log2 (difference from the parental peptide).
chain 1 Y5T: the enrichment was -4.78 log2 (difference from the parental peptide).
In the case of chain 1 Y5L, the enrichment is -2.37 log2 (difference from the parental peptide).
For the variant chain 1 Y5W, the enrichment is 1.88 log2 (difference from the parental peptide).
On to chain 1 T16S, for which the enrichment is 1.18 log2 (difference from the parental peptide).
chain 1 T16N: the enrichment was 0.695 log2 (difference from the parental peptide).
Take chain 1 T16P: the enrichment was 1.77 log2 (difference from the parental peptide).
Consider chain 1 T16M, for which the enrichment is 0.752 log2 (difference from the parental peptide).
As for chain 1 T16V, the enrichment was 0.462 log2 (difference from the parental peptide).
For chain 1 E1H, the enrichment is -1.51 log2 (difference from the parental peptide).
For chain 1 E1M, the enrichment was -0.0601 log2 (difference from the parental peptide).
For chain 1 E1L, the enrichment was -1.42 log2 (difference from the parental peptide).
Take chain 1 E1Q: the enrichment was -0.591 log2 (difference from the parental peptide).
